Experimental findings from patent US10117916B2, “Peptides and combination of peptides for use in immunotherapy against CLL and other cancers” (immatics biotechnologies GmbH, priority 2015, dated 2018) are described below.

This test deals with HLA-A*02:01 (Homo sapiens, UniProt P04439, D140Y/D185E/D98H/E176V/E277Q/G131W/G231S/I119V/I121R/I166T/I218V/L300P/L318F/N151K/N90K/P208A/P217A/Q86G/Q94H/R138H/R169H/T345S). The test is described as follows: MHC binding assay: UV-ligand exchange with β2m ELISA (peptide exchange yield). The settings on record: MHC class I binding score; binding to HLA-A*02:01 ranged by peptide exchange yield (UV-ligand exchange, β2m ELISA). In outline: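 Binding capacity is expressed as the yield of UV-mediated ligand exchange, reflecting how well each peptide stabilizes peptide-receptive MHC. Stabilized complexes are read out by anti-β2m HRP ELISA (450 nm) after streptavidin capture, with refolded MLA-001 monomer standards for quantitation.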
(An ELISA detects its analyte on a solid surface through an enzyme-linked reagent.)

Regarding “252 (NLLDPGSSYLL; listed as Homo sapiens) [compound 252]”, the “Peptide Exchange” value was “″+++″ (≥50 = +++)”.
As for “253 (NLWSVDGEVTV; listed as Homo sapiens) [compound 253]”, the entry is “″+++″ (≥50 = +++)”.
As for “254 (QLIPKLIFL; listed as Homo sapiens) [compound 254]”, the entry is “″+++″ (≥50 = +++)”; as for “255 (YLFEEAISM; listed as Homo sapiens) [compound 255]”, “″+++″ (≥50 = +++)”.
“256 (QLLPVSNVVSV; listed as Homo sapiens) [compound 256]”: the “Peptide Exchange” value is recorded as “″+++″ (≥50 = +++)”.
In the case of “258 (RLDYITAEI; listed as Homo sapiens) [compound 258]”, the “Peptide Exchange” value is “″+++″ (≥50 = +++)”.
As for “259 (RLLDEQFAVL; listed as Homo sapiens) [compound 259]”, the “Peptide Exchange” value is “″+++″ (≥50 = +++)”.
As for “260 (SLDDVEGMSV; listed as Homo sapiens) [compound 260]”, the entry is “″+++″ (≥50 = +++)”.
As to “261 (SLVEAQGWLV; listed as Homo sapiens) [compound 261]”, the “Peptide Exchange” value is listed as “″+++″ (≥50 = +++)”.
Consider “262 (SLWNAGTSV; listed as Homo sapiens) [compound 262]”, for which the “Peptide Exchange” value is given as “″+++″ (≥50 = +++)”.
As for “263 (SQWEDIHVV; listed as Homo sapiens) [compound 263]”, the entry is “″+++″ (≥50 = +++)”; as for “264 (TILDYINVV; listed as Homo sapiens) [compound 264]”, “″+++″ (≥50 = +++)”; as for “265 (TLLADDLEIKL; listed as Homo sapiens) [compound 265]”, “″+++″ (≥50 = +++)”.
As for “266 (TLLDQLDTQL; listed as Homo sapiens) [compound 266]”, the entry is “″++″ (≥20% = ++)”.
As for “267 (TLLDWQDSL; listed as Homo sapiens) [compound 267]”, the entry is “″+++″ (≥50 = +++)”.
On to “268 (TLLQVFHLL; listed as Homo sapiens) [compound 268]”, for which the “Peptide Exchange” value is recorded as “″+++″ (≥50 = +++)”.
Take “269 (TLTDEQFLV; listed as Homo sapiens) [compound 269]”: the “Peptide Exchange” value is recorded as “″++″ (≥20% = ++)”.
“270 (TVLPVPPLSV; listed as Homo sapiens) [compound 270]”: the “Peptide Exchange” value was “″+++″ (≥50 = +++)”.
As for “271 (VIRNIVEAA; listed as Homo sapiens) [compound 271]”, the entry is “″++″ (≥20% = ++)”.
The value for “272 (VLDELPPLI; listed as Homo sapiens) [compound 272]” was “″+++″ (≥50 = +++)”; that for “273 (VLGEYSYLL; listed as Homo sapiens) [compound 273]” was “″+++″ (≥50 = +++)”.
The value for “274 (VLLEYHIAYL; listed as Homo sapiens) [compound 274]” was “″+++″ (≥50 = +++)”; that for “275 (VLLFIEHSV; listed as Homo sapiens) [compound 275]” was “″+++″ (≥50 = +++)”; that for “276 (VLNDGAPNV; listed as Homo sapiens) [compound 276]” was “″+++″ (≥50 = +++)”.
On to “277 (VMILKLPFL; listed as Homo sapiens) [compound 277]”, for which the “Peptide Exchange” value is recorded as “″++″ (≥20% = ++)”.
As for “278 (YLDDLLPKL; listed as Homo sapiens) [compound 278]”, the entry is “″+++″ (≥50 = +++)”; as for “279 (YMAPEVVEA; listed as Homo sapiens) [compound 279]”, “″+++″ (≥50 = +++)”.
Turning to “280 (YTLDSLYWSV; listed as Homo sapiens) [compound 280]”, the “Peptide Exchange” value was “″+++″ (≥50 = +++)”.
As for “283 (ILQPMDIHV; listed as Homo sapiens) [compound 283]”, the entry is “″+++″ (≥50 = +++)”; as for “284 (LLSAAEPVPA; listed as Homo sapiens) [compound 284]”, “″++″ (≥20% = ++)”; as for “285 (GVATAGCVNEV; listed as Homo sapiens) [compound 285]”, “″++++″ (≥75% = ++++)”.
The value for “286 (FLLEDLSQKL; listed as Homo sapiens) [compound 286]” was “″+++″ (≥50 = +++)”.
Consider “287 (FLWEEKFNSL; listed as Homo sapiens) [compound 287]”, for which the “Peptide Exchange” value is recorded as “″++++″ (≥75% = ++++)”.
As for “288 (GLAESTGLLAV; listed as Homo sapiens) [compound 288]”, the entry is “″+++″ (≥50 = +++)”.
On to “289 (ILEEQPMDMLL; listed as Homo sapiens) [compound 289]”, for which the “Peptide Exchange” value is given as “″+++″ (≥50 = +++)”.
As for “291 (ILLNEDDLVTI; listed as Homo sapiens) [compound 291]”, the entry is “″+++″ (≥50 = +++)”; as for “292 (AAALIIHHV; listed as Homo sapiens) [compound 292]”, “″+++″ (≥50 = +++)”.
As for “293 (ALDIMIPMV; listed as Homo sapiens) [compound 293]”, the entry is “″+++″ (≥50 = +++)”.
As for “294 (ALLDQLHTLL; listed as Homo sapiens) [compound 294]”, the entry is “″++++″ (≥75% = ++++)”.
Consider “295 (ALLQKLQQL; listed as Homo sapiens) [compound 295]”, for which the “Peptide Exchange” value is given as “″+++″ (≥50 = +++)”.
As for “296 (FIAPTGHSL; listed as Homo sapiens) [compound 296]”, the entry is “″++″ (≥20% = ++)”.
The value for “297 (FLVEPQEDTRL; listed as Homo sapiens) [compound 297]” was “″+++″ (≥50 = +++)”.
As for “298 (IILPVEVEV; listed as Homo sapiens) [compound 298]”, the entry is “″+++″ (≥50 = +++)”; as for “299 (ILEENIPVL; listed as Homo sapiens) [compound 299]”, “″+++″ (≥50 = +++)”.
“300 (ILLNPAYDVYL; listed as Homo sapiens) [compound 300]”: the “Peptide Exchange” value is listed as “″+++″ (≥50 = +++)”.
For “301 (AASPIITLV; listed as Homo sapiens) [compound 301]”, the “Peptide Exchange” value is recorded as “″+++″ (≥50 = +++)”.
In the case of “302 (ILQDLTFVHL; listed as Homo sapiens) [compound 302]”, the “Peptide Exchange” value is listed as “″+++″ (≥50 = +++)”.
The value for “303 (ILSQPTPSL; listed as Homo sapiens) [compound 303]” was “″+++″ (≥50 = +++)”.
As to “304 (LAIVPVNTL; listed as Homo sapiens) [compound 304]”, the “Peptide Exchange” value is “″+″ (≥10% = +)”.
The value for “305 (LLFPQIEGIKI; listed as Homo sapiens) [compound 305]” was “″+++″ (≥50 = +++)”; that for “306 (VVAEELENV; listed as Homo sapiens) [compound 306]” was “″++″ (≥20% = ++)”; that for “308 (SLYDVSRMYV; listed as Homo sapiens) [compound 308]” was “″++++″ (≥75% = ++++)”.
The value for “309 (ILYGTQFVL; listed as Homo sapiens) [compound 309]” was “″+++″ (≥50 = +++)”.
As for “310 (LLSTLHLLV; listed as Homo sapiens) [compound 310]”, the entry is “″+++″ (≥50 = +++)”; as for “311 (LLVDVEPKV; listed as Homo sapiens) [compound 311]”, “″+++″ (≥50 = +++)”; as for “312 (LLYNSTDPTL; listed as Homo sapiens) [compound 312]”, “″+++″ (≥50 = +++)”.
With “313 (LMADLEGLHL; listed as Homo sapiens) [compound 313]”, the “Peptide Exchange” value is listed as “″+++″ (≥50 = +++)”.
The value for “314 (LMKDCEAEV; listed as Homo sapiens) [compound 314]” was “″+++″ (≥50 = +++)”; that for “315 (LVYEAPETV; listed as Homo sapiens) [compound 315]” was “″+++″ (≥50 = +++)”; that for “316 (MLLEHGITL; listed as Homo sapiens) [compound 316]” was “″+++″ (≥50 = +++)”.
The value for “317 (NLLAHIWAL; listed as Homo sapiens) [compound 317]” was “″+++″ (≥50 = +++)”.
As for “318 (NLQVTQPTV; listed as Homo sapiens) [compound 318]”, the entry is “″+++″ (≥50 = +++)”; as for “319 (QVIPQLQTV; listed as Homo sapiens) [compound 319]”, “″+++″ (≥50 = +++)”.
Consider “321 (RLLEFELAQL; listed as Homo sapiens) [compound 321]”, for which the “Peptide Exchange” value was “″+++″ (≥50 = +++)”.
Regarding “324 (SLYSALQQA; listed as Homo sapiens) [compound 324]”, the “Peptide Exchange” value is “″+++″ (≥50 = +++)”.
As for “325 (TLENGVPCV; listed as Homo sapiens) [compound 325]”, the entry is “″+++″ (≥50 = +++)”.
The value for “326 (VLAFLVHEL; listed as Homo sapiens) [compound 326]” was “″++++″ (≥75% = ++++)”.
The value for “327 (VLIKWFPEV; listed as Homo sapiens) [compound 327]” was “″++++″ (≥75% = ++++)”; that for “328 (VLLPQETAEIHL; listed as Homo sapiens) [compound 328]” was “″++++″ (≥75% = ++++)”.
Turning to “330 (VLMWEIYSL; listed as Homo sapiens) [compound 330]”, the “Peptide Exchange” value is reported as “″+++″ (≥50 = +++)”.
